Values joined by “and” are separate entries in the source; they are usually repeats but may differ in a detail not shown here. Identical values can stand only once. Positions of bridges follow the written chain, without caps; N, C: chain ends. Non-standard residues stand in square brackets, D forms with d. Residues, ends and D or L forms follow the SMILES beside them. *: point of attachment. DO3A(CH2CH2SO2CH2CH2) = O=C(O)CN1CCN(CCS(=O)(=O)CC*)CCN(CC(=O)O)CCN(CC(=O)O)CC1; Ala(4-thiazolyl) = N[C@@H](Cc1cscn1)C(=O)O

Data set [1] is described as follows: In vivo metabolic stability in venous plasma (radio-HPLC). Details: species or system cynomolgus monkeys. The settings on record: NHP in vivo, n = 3. How it is done: For NHP 5–7, venous blood samples were taken at 5, 30 and 60 min for assessment of in vivo metabolic stability of [^68Ga]Ga-DO3A-S01-GCG, using HPLC methods described below. The percentage of intact [^68Ga]Ga-DO3A-S01-GCG was plotted against time from administration and fitted to a mono-exponential function.
Blood samples were centrifuged at 4000 rpm for 2 minutes at 4 °C (Beckman Allegra X-22R Centrifuge, Palo Alto, USA). From the plasma, 0.5 ml was taken and an equal volume of acetonitrile was added to precipitate the proteins. The mixture was centrifuged at 13200 rpm at 4 °C for 1 min (Eppendorf 5415 R centrifuge, Eppendorf AG, Hamburg, Germany). The supernatant was filtered through a 0.2 μm nylon membrane (Corning Incorporated, Corning, NY, USA) by centrifugation at 13200 rpm at 4 °C for 1 min. 500 µl of the filtered supernatant was diluted with 1500 µl H2O; thereafter, 30 µl of 0.01 mM unlabelled DO3A-S01-GCG was added to the mixture. The sample preparation recovery was determined by measuring the radioactivity in the plasma, filters and pellet.
HPLC analysis was performed using a binary pump system (Gilson, Middleton, USA). The sample (1.8 ml) was injected using an automated solid phase extraction controller (ASPEC Gilson) connected to a dilutor (Gilson). The separation was performed on an Xbridge Prep BEH130 C18 (peptide separation technology) 250 mm × 10 mm, 5 µm with a 10 × 10 mm C18 security guard from the same supplier. The HPLC system was operated at a flow rate of 6 ml/min. The mobile phase consisted of 0.1% TFA in MilliQ: 0.1% TFA in Acetonitrile. Gradient elution mode was used for the separation (Gradient: 0–7 min: 5–70%, 7–12 min: 70%, 12–13 min: 70–5%, 13–15 min: 5%).
A second method was developed with a lesser gradient, to determine if any metabolites were co-eluting with the DO3A-S01-GCG peak. A UV detector (Gilson) was used to detect unlabelled DO3A-S01-GCG at 220 nm. […] Six fractions were collected, and the radioactivity in the fractions was measured by a well-type scintillation counter. […]

Data set [2] can be described thus: Human predicted radiation dosimetry extrapolated from NHP biodistribution (OLINDA/EXM 1.1). The procedure: The predicted dosimetry of [^68Ga]Ga-DO3A-S01-GCG in human males was estimated based on the in vivo biodistribution in NHPs as captured by dynamic PET examinations. The baseline PET examinations in NHP 2–7 (n=6) were averaged for the dosimetry analysis. […] However, the uptake in the brain in NHP is likely negligible based on observations in rat (5) as well as a whole-body PET/CT examination performed on NHP1 90–120 minutes post [^68Ga]Ga-DO3A-S01-GCG administration.
The dosimetry calculations were performed as described previously for [^68Ga]Ga-DO3A-VS-Cys^40-Exendin4[4] and [^68Ga]Ga-DO3A-S01-GCG in rat[5].
In brief, dynamic NHP organ uptake as measured by PET and expressed as SUV was normalised to that of human organs (using tissue weights of whole-body adult reference phantoms). The decay-corrected and normalized SUVs were back-corrected to count rates to calculate the actual radiation burden in each tissue. The tissue residence times (MBq-h/MBq) were assessed by trapezoidal approximation of the un-decay corrected human SUV biodistribution data. The tissue washout from the last time point (90 minutes) until infinity was estimated by a single mono-exponential fit.
The estimation of the absorbed dose was performed by the OLINDA/EXM 1.1 software, where the calculations were based on the adult reference male or female phantoms to obtain the absorbed dose estimate in humans (ICRP60). The organ specific doses are reported as mGy/MBq (effective dose as mSv/MBq). The amount of MBq that can be safely administered annually (MBq/year) was calculated for each organ as well as the effective dose, by dividing the limiting dose (10 mSv/year for the effective dose, 150 mGy/year for all tissues except for red marrow with 50 mGy/year) by the dose (mGy/MBq or mSv/MBq).

The next data set has as its system rat spleen sections. Description: In vitro autoradiography of spleen sections. Conditions: 10 µM GCG or 1 µm DO3A-S01-GCG precursor, 60 min RT, n = 3. The data set is classed as binding, Sprague Dawley rat. The procedure:
(§1) Splenic binding of [^68Ga]Ga-DO3A-S01-GCG was previously observed in rat in vivo[5]. This assay was performed to elucidate if splenic binding in human and NHP in vivo would be expected.
(§2) Spleen tissue was collected post-mortem from the NHP and Sprague Dawley rat. Biopsies from donor human spleen were obtained from Uppsala Biobank (sample collection 827) and approved by local ethical review board (Drn 2016/465).
(§3) The splenic biopsies were processed to 10 µm frozen tissue sections by a cryotome. The sections were pre-incubated in phosphate-buffered saline (PBS) (pH 7.4, 1% Bovine Serum Albumin (BSA)) for 10 min at room temperature (RT). Then, the sections were incubated with 5 nM [^68Ga]Ga-DO3A-S01-GCG in […] PBS (pH 7.4, 1% BSA), either alone or in the presence of 10 µM GCG or 1 µm DO3A-S01-GCG precursor for 60 min at RT.
(§4) After incubation, the sections were washed three times, first with assay buffer (PBS pH 7.4 1% BSA) and then twice with PBS for 1 minute. Sections were carefully dried at 37 °C and then exposed against a digital phosphorimager plate, together with a 20 µl reference from the buffer calibrated against a gamma-counter to enable quantification to fmol bound radioligand/mm^3. The phosphorimager plates were scanned using a Cyclone Plus Phosphor imager (Perkin Elmer) at 600 dpi, and the resulting autoradiograms analysed by ImageJ (NIH, Bethesda). […]

The next data set relates to NHP spleen sections. Description: In vitro autoradiography of spleen sections. Format: binding. Conditions: 10 µM GCG or 1 µm DO3A-S01-GCG precursor, 60 min RT, n = 3. The procedure:
as §1, §2, §3, §4

The next data set concerns human spleen sections. Description: In vitro autoradiography of spleen sections. Format: binding. The settings on record: 10 µM GCG or 1 µm DO3A-S01-GCG precursor, 60 min RT, n = 3. The procedure:
as §1, §2, §3, §4

Where [3] appears, read: extrapolated from NHP 2-7 baseline PET (n = 6).

As to `CC[C@H](C)[C@H](NC(=O)[C@H](Cc1ccccc1)NC(=O)[C@H](CCC(=O)O)NC(=O)[C@@H]1CCCCNC(=O)CC[C@H](NC(=O)[C@H](CC(=O)O)NC(=O)[C@H](CC(C)C)NC(=O)[C@H](CCC(N)=O)NC(=O)[C@H](CCCCN)NC(=O)[C@H](CO)NC(=O)[C@H](Cc2ccc(O)cc2)NC(=O)[C@H](CC(=O)O)NC(=O)[C@H](CO)NC(=O)[C@@H](NC(=O)[C@H](Cc2ccccc2)NC(=O)[C@@H](NC(=O)CNC(=O)[C@H](CCC(N)=O)NC(=O)[C@@H](CO)NC(=O)[C@@H](N)Cc2cscn2)[C@@H](C)O)[C@@H](C)O)C(=O)N[C@@H](CCC(N)=O)C(=O)N[C@@H](CCCNC(=N)N)C(=O)N[C@@H](C)C(=O)N1)C(=O)N[C@@H](CCC(=O)O)C(=O)N[C@@H](Cc1c[nH]c2ccccc12)C(=O)N[C@@H](CC(C)C)C(=O)N[C@@H](CC(C)C)C(=O)N[C@@H](C)C(=O)N[C@H](C(=O)NCC(=O)N1CCC[C@H]1C(=O)N[C@@H](CCC(=O)O)C(=O)N[C@@H](CO)C(=O)NCC(=O)N[C@@H](C)C(=O)N1CCC[C@H]1C(=O)N1CCC[C@H]1C(=O)N1CCC[C@H]1C(=O)N[C@@H](CO)C(=O)N[C@@H](CSCCS(=O)(=O)CCN1CCN(CC(=O)O)CCN(CC(=O)O)CCN(CC(=O)O)CC1)C(N)=O)[C@@H](C)O` [[^68Ga]Ga-DO3A-S01-GCG, metal not drawn] (H-[Ala(4-thiazolyl)][dS]QGTFTSDYSKQLDEQRAKEFIEWLLATGPESGAPPPSC(DO3A(CH2CH2SO2CH2CH2))-NH2; lactam 16-20), in data set [1] (5 minutes after administration), the “Intact radioligand in venous plasma” value was determined as 95.9 ± 1.2%. In addition, in data set [1] (30 minutes after administration), the “Intact radioligand in venous plasma” value came to 89.0 ± 2.7%. Moreover, the “Intact radioligand in venous plasma” value in data set [1] (60 minutes after administration) is recorded as 80.3 ± 3.3%. Further, in data set [2] (setting [3]), the “Human predicted absorbed dose, heart wall (myocardium)” value is given as 0.10 mGy/MBq; the “Human predicted absorbed dose, kidneys” value was 0.29 mGy/MBq; the “Human predicted absorbed dose, liver” value is given as 0.049 mGy/MBq; the “Human predicted absorbed dose, red marrow” value is 0.039 mGy/MBq. In addition, the “Human predicted effective dose” value in data set [2] (setting [3]) was 20.6 µSv/MBq. Further, the “Annual limit of administered radioactivity, effective dose limiting” value in data set [2] (limit 10 mSv/year) was 485 MBq. Further, the “Annual exposure limit from red marrow absorbed dose” value in data set [2] (limit 50 mGy/year) was over 1000 MBq. Further, in data set [2] (limit 150 mGy/year), the “Annual administration allowed by critical organ kidney” value was 519 MBq and > 500 MBq.
In the case of glucagon, the “Blocking of [68Ga]Ga-DO3A-S01-GCG binding in rat spleen sections by co-incubation” value in the data set on rat spleen sections is “could be blocked”. Also, in the data set on NHP spleen sections, the “Effect of co-incubation on [68Ga]Ga-DO3A-S01-GCG binding in NHP spleen sections” value was “not affected”. In addition, in the data set with human spleen sections, the “Effect of co-incubation on [68Ga]Ga-DO3A-S01-GCG binding in human spleen sections” value is “not affected”.

The values are drawn from article PMC6800434, “Assessment of glucagon receptor occupancy by Positron Emission Tomography in non-human primates” (Scientific Reports, 2019).
